Reference: the supplement of paper PMC9112550, “Optimization of the antimicrobial peptide Bac7 by deep mutational scanning” (BMC Biology, 2022)
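Also: peptides expressed intracellularly from a pBAD plasmid library in pooled LB shake-flask culture, induced with 0.3% L-arabinose, DNA abundance read by NGS, three biological replicates, DESeq2 with apeglm shrinkage.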

What follows are sequences tested on Escherichia coli TOP10 (assay: shrunken log2 fold change of peptide-encoding DNA abundance (4.5 h post-induction vs induction); higher = less antimicrobial activity (less host growth inhibition)). Details: time post-induction: 4.5 h; library: site-saturation at positions 5, 18, 19, 20.
RRIRQRPPRLPRPRPRPVNQPRP was tested, and the “shrunken log2 fold change” value was -0.0686.
For RRIRIRPPRLPRPRPRPAHMPRP, the “shrunken log2 fold change” value was -0.303.
With RRIRWRPPRLPRPRPRPTELPRP the “shrunken log2 fold change” value was 0.135.
With RRIRLRPPRLPRPRPRPGADPRP the “shrunken log2 fold change” value was 0.28.
In the case of RRIRWRPPRLPRPRPRPGDMPRP, the “shrunken log2 fold change” value is reported as 0.344.
RRIRPRPPRLPRPRPRPKLCPRP was tested, and the “shrunken log2 fold change” value was -0.0437.
RRIRHRPPRLPRPRPRPYDWPRP was tested, and the “shrunken log2 fold change” value was -0.0123.
In the case of RRIRARPPRLPRPRPRPLWDPRP, the “shrunken log2 fold change” value is reported as 0.022.
With RRIRARPPRLPRPRPRPGGGPRP the “shrunken log2 fold change” value was 0.898.
With RRIRDRPPRLPRPRPRPNTQPRP the “shrunken log2 fold change” value was 0.0704.
For RRIRARPPRLPRPRPRPWCNPRP, the “shrunken log2 fold change” value was -0.536.
In the case of RRIRMRPPRLPRPRPRPRLYPRP, the “shrunken log2 fold change” value is reported as 0.212.
For RRIRNRPPRLPRPRPRPTYLPRP, the “shrunken log2 fold change” value was -0.533.
In the case of RRIRMRPPRLPRPRPRPDVWPRP, the “shrunken log2 fold change” value is reported as 1.19.
For RRIRVRPPRLPRPRPRPNTNPRP, the “shrunken log2 fold change” value was -0.421.
For RRIRHRPPRLPRPRPRPDNTPRP, the “shrunken log2 fold change” value was -0.0928.
For RRIRVRPPRLPRPRPRPFQAPRP, the “shrunken log2 fold change” value was -0.127.
RRIRQRPPRLPRPRPRPAFRPRP was tested, and the “shrunken log2 fold change” value was 0.204.
For RRIRSRPPRLPRPRPRPTRYPRP, the “shrunken log2 fold change” value was -0.198.
For RRIRVRPPRLPRPRPRPGAQPRP, the “shrunken log2 fold change” value was 0.00624.
For RRIRPRPPRLPRPRPRPLTAPRP, the “shrunken log2 fold change” value was 0.212.
For RRIRYRPPRLPRPRPRPVYTPRP, the “shrunken log2 fold change” value was -0.499.
RRIRRRPPRLPRPRPRPTYCPRP was tested, and the “shrunken log2 fold change” value was -0.0567.
For RRIRFRPPRLPRPRPRPCGAPRP, the “shrunken log2 fold change” value was 0.0828.
For RRIRLRPPRLPRPRPRPEIKPRP, the “shrunken log2 fold change” value was -0.12.
With RRIRCRPPRLPRPRPRPRDTPRP the “shrunken log2 fold change” value was 0.0379.
With RRIRERPPRLPRPRPRPCRYPRP the “shrunken log2 fold change” value was -0.00318.
In the case of RRIRLRPPRLPRPRPRPDDKPRP, the “shrunken log2 fold change” value is reported as -0.525.
For RRIRMRPPRLPRPRPRPWLPPRP, the “shrunken log2 fold change” value was -0.0332.
RRIRTRPPRLPRPRPRPDLTPRP was tested, and the “shrunken log2 fold change” value was 0.129.
RRIRSRPPRLPRPRPRPFYQPRP was tested, and the “shrunken log2 fold change” value was -0.308.
For RRIRTRPPRLPRPRPRPEGFPRP, the “shrunken log2 fold change” value was -0.041.
RRIRQRPPRLPRPRPRPWLPPRP was tested, and the “shrunken log2 fold change” value was -0.181.
In the case of RRIRYRPPRLPRPRPRPGTDPRP, the “shrunken log2 fold change” value is reported as -0.0254.
For RRIRARPPRLPRPRPRPHVCPRP, the “shrunken log2 fold change” value was -0.297.
For RRIRWRPPRLPRPRPRPMMEPRP, the “shrunken log2 fold change” value was 0.134.
RRIRNRPPRLPRPRPRPVPTPRP was tested, and the “shrunken log2 fold change” value was 0.288.
RRIRMRPPRLPRPRPRPRYKPRP was tested, and the “shrunken log2 fold change” value was 0.104.
In the case of RRIRDRPPRLPRPRPRPRYKPRP, the “shrunken log2 fold change” value is reported as -0.202.
For RRIRCRPPRLPRPRPRPRWCPRP, the “shrunken log2 fold change” value was -0.131.
In the case of RRIRARPPRLPRPRPRPDITPRP, the “shrunken log2 fold change” value is reported as 0.491.
For RRIRGRPPRLPRPRPRPCEWPRP, the “shrunken log2 fold change” value was -0.01.
For RRIRTRPPRLPRPRPRPHIMPRP, the “shrunken log2 fold change” value was -0.738.
In the case of RRIRRRPPRLPRPRPRPVDQPRP, the “shrunken log2 fold change” value is reported as 0.348.
With RRIRCRPPRLPRPRPRPCQDPRP the “shrunken log2 fold change” value was -0.178.
In the case of RRIRVRPPRLPRPRPRPYSLPRP, the “shrunken log2 fold change” value is reported as -0.533.
With RRIRCRPPRLPRPRPRPVNVPRP the “shrunken log2 fold change” value was -0.249.
For RRIRYRPPRLPRPRPRPDCRPRP, the “shrunken log2 fold change” value was -0.363.
With RRIRRRPPRLPRPRPRPWHLPRP the “shrunken log2 fold change” value was -0.138.
RRIRRRPPRLPRPRPRPHFTPRP was tested, and the “shrunken log2 fold change” value was -0.0671.
For RRIRVRPPRLPRPRPRPTAGPRP, the “shrunken log2 fold change” value was -0.0283.
RRIRIRPPRLPRPRPRPMPSPRP was tested, and the “shrunken log2 fold change” value was -0.0227.
With RRIRVRPPRLPRPRPRPVVNPRP the “shrunken log2 fold change” value was -0.0959.
RRIRKRPPRLPRPRPRPLKAPRP was tested, and the “shrunken log2 fold change” value was 0.0198.
For RRIRSRPPRLPRPRPRPQMFPRP, the “shrunken log2 fold change” value was -0.0871.
With RRIRDRPPRLPRPRPRPLCEPRP the “shrunken log2 fold change” value was 0.715.
With RRIRGRPPRLPRPRPRPRWKPRP the “shrunken log2 fold change” value was 0.0802.
For RRIRVRPPRLPRPRPRPSVTPRP, the “shrunken log2 fold change” value was -0.222.
With RRIRWRPPRLPRPRPRPHETPRP the “shrunken log2 fold change” value was 0.126.
In the case of RRIRQRPPRLPRPRPRPFNKPRP, the “shrunken log2 fold change” value is reported as -0.0963.
For RRIRYRPPRLPRPRPRPIGTPRP, the “shrunken log2 fold change” value was -0.1.
With RRIRHRPPRLPRPRPRPTVNPRP the “shrunken log2 fold change” value was -0.144.
In the case of RRIRFRPPRLPRPRPRPKFLPRP, the “shrunken log2 fold change” value is reported as -0.283.
With RRIRCRPPRLPRPRPRPFEVPRP the “shrunken log2 fold change” value was -0.152.
In the case of RRIRNRPPRLPRPRPRPNENPRP, the “shrunken log2 fold change” value is reported as 0.215.
In the case of RRIRTRPPRLPRPRPRPKDCPRP, the “shrunken log2 fold change” value is reported as 0.0164.
With RRIRERPPRLPRPRPRPLWTPRP the “shrunken log2 fold change” value was 0.0667.
In the case of RRIRWRPPRLPRPRPRPAGAPRP, the “shrunken log2 fold change” value is reported as 0.392.
RRIRGRPPRLPRPRPRPYWVPRP was tested, and the “shrunken log2 fold change” value was -0.178.
In the case of RRIRIRPPRLPRPRPRPAGIPRP, the “shrunken log2 fold change” value is reported as -0.437.
For RRIRGRPPRLPRPRPRPISRPRP, the “shrunken log2 fold change” value was 0.0494.
RRIRDRPPRLPRPRPRPWQAPRP was tested, and the “shrunken log2 fold change” value was -0.0194.
RRIRYRPPRLPRPRPRPRMQPRP was tested, and the “shrunken log2 fold change” value was -0.673.
In the case of RRIRKRPPRLPRPRPRPRHAPRP, the “shrunken log2 fold change” value is reported as 0.727.
With RRIRTRPPRLPRPRPRPYDVPRP the “shrunken log2 fold change” value was -0.153.
